Biological target: ALK-1/BMPR-2 receptor pair of the PathHunter U2Os dimerization cells (DiscoverX 93-0962C3) (UniProt P37023 22-503; Q13873 27-1038)
Experiment: cell-based or functional assay

Chain of ALK-1/BMPR-2 receptor pair of the PathHunter U2Os dimerization cells (DiscoverX 93-0962C3) (P37023 22-503, chain 1 of 2): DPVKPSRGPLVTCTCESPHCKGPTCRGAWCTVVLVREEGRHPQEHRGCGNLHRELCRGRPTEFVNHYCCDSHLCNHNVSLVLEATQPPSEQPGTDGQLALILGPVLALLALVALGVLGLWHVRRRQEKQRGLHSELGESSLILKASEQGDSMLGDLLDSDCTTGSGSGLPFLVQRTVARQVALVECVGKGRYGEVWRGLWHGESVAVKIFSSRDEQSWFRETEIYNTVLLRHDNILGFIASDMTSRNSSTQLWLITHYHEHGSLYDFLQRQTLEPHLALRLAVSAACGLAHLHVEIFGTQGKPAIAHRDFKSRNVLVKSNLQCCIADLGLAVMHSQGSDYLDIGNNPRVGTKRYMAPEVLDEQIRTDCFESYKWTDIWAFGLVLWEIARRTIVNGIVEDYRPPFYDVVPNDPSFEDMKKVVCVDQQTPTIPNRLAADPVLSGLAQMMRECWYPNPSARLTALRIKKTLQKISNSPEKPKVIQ
Chain of ALK-1/BMPR-2 receptor pair of the PathHunter U2Os dimerization cells (DiscoverX 93-0962C3) (Q13873 27-1038, chain 2 of 2): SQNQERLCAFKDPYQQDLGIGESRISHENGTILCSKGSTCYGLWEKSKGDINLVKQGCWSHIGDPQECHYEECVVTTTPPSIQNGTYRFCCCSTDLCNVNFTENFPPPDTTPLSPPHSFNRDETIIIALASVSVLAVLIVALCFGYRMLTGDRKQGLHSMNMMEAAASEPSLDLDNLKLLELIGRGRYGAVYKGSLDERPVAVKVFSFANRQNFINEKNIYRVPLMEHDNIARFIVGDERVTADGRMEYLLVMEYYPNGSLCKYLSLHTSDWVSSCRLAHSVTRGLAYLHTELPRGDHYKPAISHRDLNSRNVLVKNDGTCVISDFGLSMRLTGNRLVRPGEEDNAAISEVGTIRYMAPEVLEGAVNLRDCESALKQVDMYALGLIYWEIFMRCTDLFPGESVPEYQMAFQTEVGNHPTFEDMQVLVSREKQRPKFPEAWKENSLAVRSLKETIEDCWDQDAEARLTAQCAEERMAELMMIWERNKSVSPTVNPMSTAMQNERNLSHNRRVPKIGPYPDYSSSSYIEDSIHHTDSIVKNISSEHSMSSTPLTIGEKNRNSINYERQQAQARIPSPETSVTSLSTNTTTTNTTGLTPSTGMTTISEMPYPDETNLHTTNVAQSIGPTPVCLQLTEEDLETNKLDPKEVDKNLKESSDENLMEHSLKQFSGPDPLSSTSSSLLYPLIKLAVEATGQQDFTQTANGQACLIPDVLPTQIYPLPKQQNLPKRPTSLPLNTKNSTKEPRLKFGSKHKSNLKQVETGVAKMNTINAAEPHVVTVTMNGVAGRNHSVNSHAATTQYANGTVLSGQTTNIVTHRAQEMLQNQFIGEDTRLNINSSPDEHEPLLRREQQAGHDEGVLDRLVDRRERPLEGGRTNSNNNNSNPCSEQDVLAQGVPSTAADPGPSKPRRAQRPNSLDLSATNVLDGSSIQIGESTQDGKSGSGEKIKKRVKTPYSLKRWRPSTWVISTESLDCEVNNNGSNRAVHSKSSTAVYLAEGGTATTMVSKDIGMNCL

Binder | % Emax BMP9 [%] | Emax (RLU)
DGL651 (bispecific antibody) chain 1: not shown chain 2: EVQLLESGGGLVQPGGSLRLSCAASGFTFSDYYMTWIRQAPGKGLEWVSSISGGSTYYADSRKGRFTISRDNSENTLYLQMNSLRAEDTAVYYCARDFGVAGWFGQYGMDVWGQGTLVTVSSGGGGSGGGGSGGGGSQSVLTQPPSASGTPGQRVTISCTGSSSNIGAGYDVHWYQQLPGTAPKLLIYRSNQRPSGVPDRFSGSKSGTSASLAISGLRSEDEADYYCSSYAGNYNLVFGGGTKLTVLDKTHTCPPCPAPEAAGAPSVFLFPPKPKDTLMISRTPEVTCVVVDVSHEDPEVKFNWYVDGVEVHNAKTKPREEQYNSTYRVVSVLTVLHQDWLNGKEYKCKVSNKALPAPIEKTISKAKGQPREPQVCTLPPSRDELTKNQVSLSCAVKGFYPSDIAVEWESNGQPENNYKTTPPVLDSDGSFFLVSKLTVDKSRWQQGNVFSCSVMHEALHNHYTQKSLSLSPGWSHPQFEK | 72 | 1.76e+07
DGL653 (bispecific antibody) chain 1: not shown chain 2: EVQLLESGGGLVQPGGSLRLSCAASGFTFSDYYMTWIRQAPGKGLEWVSSISGGSTYYADSRKGRFTISRDNSENTLYLQMNSLRAEDTAVYYCARDFGVAGWFGQYGMDVWGQGTLVTVSSGGGGSGGGGSGGGGSQSVLTQPPSASGTPGQRVTISCTGSSSNIGAGYDVHWYQQLPGTAPKLLIYRSNQRPSGVPDRFSGSKSGTSASLAISGLRSEDEADYYCSSYAGNYNLVFGGGTKLTVLDKTHTCPPCPAPEAAGAPSVFLFPPKPKDTLMISRTPEVTCVVVDVSHEDPEVKFNWYVDGVEVHNAKTKPREEQYNSTYRVVSVLTVLHQDWLNGKEYKCKVSNKALPAPIEKTISKAKGQPREPQVCTLPPSRDELTKNQVSLSCAVKGFYPSDIAVEWESNGQPENNYKTTPPVLDSDGSFFLVSKLTVDKSRWQQGNVFSCSVMHEALHNHYTQKSLSLSPGWSHPQFEK | 58 | 1.43e+06
DGL730 (bispecific antibody) chain 1: EVQLLESGGGLVQPGGSLRLSCAASGFTFSDYYMTWIRQAPGKGLEWVSSISGGSTYYADSRKGRFTISRDNSENTLYLQMNSLRAEDTAVYYCARDYGVAGWFGQYGMDVWGQGTLVTVSSGGGGSGGGGSGGGGSQSVLTQPPSASGTPGQRVTISCTGSSSNIGAGYDVHWYQQLPGTAPKLLIYRSNQRPSGVPDRFSGSKSGTSASLAISGLRSEDEADYYCSSYAGNYNLVFGGGTKLTVLDKTHTCPPCPAPEAAGAPSVFLFPPKPKDTLMISRTPEVTCVVVDVSHEDPEVKFNWYVDGVEVHNAKTKPREEQYNSTYRVVSVLTVLHQDWLNGKEYKCKVSNKALPAPIEKTISKAKGQPREPQVCTLPPSRDELTKNQVSLSCAVKGFYPSDIAVEWESNGQPENNYKTTPPVLDSDGSFFLVSKLTVDKSRWQQGNVFSCSVMHEALHNHYTQKSLSLSPGWSHPQFEK chain 2: not shown | 22 | 342000
DGL731 (bispecific antibody) chain 1: EVQLLESGGGLVQPGGSLRLSCAASGFTFSDYYMTWIRQAPGKGLEWVSSISGGSTYYADSRKGRFTISRDNSENTLYLQMNSLRAEDTAVYYCARDFGVSGWFGQYGMDVWGQGTLVTVSSGGGGSGGGGSGGGGSQSVLTQPPSASGTPGQRVTISCTGSSSNIGAGYDVHWYQQLPGTAPKLLIYRSNQRPSGVPDRFSGSKSGTSASLAISGLRSEDEADYYCSSYAGNYNLVFGGGTKLTVLDKTHTCPPCPAPEAAGAPSVFLFPPKPKDTLMISRTPEVTCVVVDVSHEDPEVKFNWYVDGVEVHNAKTKPREEQYNSTYRVVSVLTVLHQDWLNGKEYKCKVSNKALPAPIEKTISKAKGQPREPQVCTLPPSRDELTKNQVSLSCAVKGFYPSDIAVEWESNGQPENNYKTTPPVLDSDGSFFLVSKLTVDKSRWQQGNVFSCSVMHEALHNHYTQKSLSLSPGWSHPQFEK chain 2: not shown | 100 | 1.56e+06
DGL652 (bispecific antibody) chain 1: not shown chain 2: EVQLLESGGGLVQPGGSLRLSCAASGFTFSDYYMTWIRQAPGKGLEWVSSISGGSTYYADSRKGRFTISRDNSENTLYLQMNSLRAEDTAVYYCARDFGVAGWFGQYGMDVWGQGTLVTVSSGGGGSGGGGSGGGGSQSVLTQPPSASGTPGQRVTISCTGSSSNIGAGYDVHWYQQLPGTAPKLLIYRSNQRPSGVPDRFSGSKSGTSASLAISGLRSEDEADYYCSSYAGNYNLVFGGGTKLTVLDKTHTCPPCPAPEAAGAPSVFLFPPKPKDTLMISRTPEVTCVVVDVSHEDPEVKFNWYVDGVEVHNAKTKPREEQYNSTYRVVSVLTVLHQDWLNGKEYKCKVSNKALPAPIEKTISKAKGQPREPQVCTLPPSRDELTKNQVSLSCAVKGFYPSDIAVEWESNGQPENNYKTTPPVLDSDGSFFLVSKLTVDKSRWQQGNVFSCSVMHEALHNHYTQKSLSLSPGWSHPQFEK | 60 | 1.48e+06
DGL654 (bispecific antibody) chain 1: EVQLLESGGGLVQPGGSLRLSCAASGFTFSDYYMNWIRQAPGKGLEWVSSISGGSTYYADSVKGRFTISRDNSENTLYLQMNSLRAEDTAVYYCARDFGVAGWFGQFGMDVWGQGTLVTVSSGGGGSGGGGSGGGGSQSVLTQPPSASGTPGQRVTISCTGSSSNIGAGYDVHWYQQLPGTAPKLLIYRSNQRPSGVPDRFSGSKSGTSASLAISGLRSEDEADYYCSSYAGNYNLVFGGGTKLTVLDKTHTCPPCPAPEAAGAPSVFLFPPKPKDTLMISRTPEVTCVVVDVSHEDPEVKFNWYVDGVEVHNAKTKPREEQYNSTYRVVSVLTVLHQDWLNGKEYKCKVSNKALPAPIEKTISKAKGQPREPQVCTLPPSRDELTKNQVSLSCAVKGFYPSDIAVEWESNGQPENNYKTTPPVLDSDGSFFLVSKLTVDKSRWQQGNVFSCSVMHEALHNHYTQKSLSLSPGWSHPQFEK chain 2: not shown | 76 | 1.87e+06
DGL656 (bispecific antibody) chain 1: EVQLLESGGGLVQPGGSLRLSCAASGFTFSDYYMNWIRQAPGKGLEWVSSISGGSTYYADSVKGRFTISRDNSENTLYLQMNSLRAEDTAVYYCARDFGVAGWFGYYGMDVWGQGTLVTVSSGGGGSGGGGSGGGGSQSVLTQPPSASGTPGQRVTISCTGSSSNIGAGYDVHWYQQLPGTAPKLLIYRSNQRPSGVPDRFSGSKSGTSASLAISGLRSEDEADYYCSSYAGNYNLVFGGGTKLTVLDKTHTCPPCPAPEAAGAPSVFLFPPKPKDTLMISRTPEVTCVVVDVSHEDPEVKFNWYVDGVEVHNAKTKPREEQYNSTYRVVSVLTVLHQDWLNGKEYKCKVSNKALPAPIEKTISKAKGQPREPQVCTLPPSRDELTKNQVSLSCAVKGFYPSDIAVEWESNGQPENNYKTTPPVLDSDGSFFLVSKLTVDKSRWQQGNVFSCSVMHEALHNHYTQKSLSLSPGWSHPQFEK chain 2: not shown | 55 | 1.36e+06
DGL655 (bispecific antibody) chain 1: EVQLLESGGGLVQPGGSLRLSCAASGFTFSDSYMSWIRQAPGKGLEWVSSISGGSTYYADSVKGRFTISRDNSENTLYLQMNSLRAEDTAVYYCARDFGVAGYFGQYGMDVWGQGTLVTVSSGGGGSGGGGSGGGGSQSVLTQPPSASGTPGQRVTISCTGSSSNIGAGYDVHWYQQLPGTAPKLLIYRSNQRPSGVPDRFSGSKSGTSASLAISGLRSEDEADYYCSSYAGNYNLVFGGGTKLTVLDKTHTCPPCPAPEAAGAPSVFLFPPKPKDTLMISRTPEVTCVVVDVSHEDPEVKFNWYVDGVEVHNAKTKPREEQYNSTYRVVSVLTVLHQDWLNGKEYKCKVSNKALPAPIEKTISKAKGQPREPQVCTLPPSRDELTKNQVSLSCAVKGFYPSDIAVEWESNGQPENNYKTTPPVLDSDGSFFLVSKLTVDKSRWQQGNVFSCSVMHEALHNHYTQKSLSLSPGWSHPQFEK chain 2: not shown | 18 | 437000

From patent US20250002588A1 (DIAGONAL THERAPEUTICS, published 2025)
